Reference: publication PMC4402209

Target: KCTD12 (UniProt Q6WVG3)
Assay: anti-Rluc IP of Rluc-KCTD12, GB2 blot
Conditions: reference: GB2-WT, no 8-Br-cAMP; sites S892

- percent of reference: 103%
Substance: GABAB2 (GB2) (from UniProt O88871) GB2-WT, 8-Br-cAMP 1 mM 30 min
